Six molecules from patent US10266566 can be followed below.

*1 amine or outer side, *2 acyl side, *3 side chain or, on linkers, in order; H or OH if unused. Where no end group is shown, it is not given here. [ ]: non-standard residue; d: D form. Trp(For) = Nin-formyl-tryptophan, O=Cn1cc(C[C@H](N[*:1])C(=O)[*:2])c2ccccc21; Tyr(Me) = O-methyl-tyrosine, COc1ccc(C[C@H](N[*:1])C(=O)[*:2])cc1; Phe(4-CONH2) = NC(=O)c1ccc(C[C@H](N)C(=O)O)cc1; Trp(1-Me) = Cn1cc(C[C@H](N)C(=O)O)c2ccccc21; Phe(4-Me) = Cc1ccc(C[C@H](N)C(=O)O)cc1; Cit = NC(=O)NCCC[C@H](N)C(=O)O; Lys(Me) = CNCCCC[C@H](N)C(=O)O

In experiment [1] the target is Human polyclonal immunoglobulin G (IgG) (human). Nature of the experiment: affinity chromatography of Cohn fraction II+III on peptide resin; binding buffer PBS + 0M NaCl.
The target is the same in experiment [2]. The experiment can be described thus: affinity chromatography of Cohn fraction II+III on peptide resin; binding buffer PBS + 0.13M NaCl.
Experiment [3] shares this target. The experiment can be described thus: affinity chromatography of Cohn fraction II+III on peptide resin; binding buffer PBS + 0.25M NaCl.
The target is the same in experiment [4]. The experiment can be described thus: affinity chromatography, peptide on Toyopearl resin, pure human IgG load; yield = IgG eluted/IgG loaded, by Protein G chromatography.
Experiment [5] shares this target. Nature of the experiment: affinity chromatography, peptide resin, 10 mg/mL hIgG in PBS; 1st run, before any enzyme.
The target is the same in experiment [6]. Nature of the experiment: affinity chromatography, peptide resin, 10 mg/mL hIgG in PBS; 3rd run, after alpha-chymotrypsin and then trypsin.
For experiment [7] the target is unchanged. The experiment can be described thus: affinity chromatography, peptide resin, 10 mg/mL hIgG in PBS; 2nd run, after resin contacted with alpha-chymotrypsin.

As for Ac-HWRGWV-{Toyopearl AF‑Amino‑650M resin} [Ac-HWRGWV], the values for the IgG yield in experiment [1], in experiment [2] and in experiment [3] were 91%, 84% and 83%, respectively.

The molecule H[Tyr(Me)][Phe(4-Me)][Lys(Me)][Phe(4-Me)]D-{Toyopearl AF‑Amino‑650M resin} [HYMetFMetKMetFMetD] had an IgG yield in experiment [4] of 49%.

Turning to H[Trp(1-Me)]RG[Trp(1-Me)]V-{Toyopearl AF‑Amino‑650M resin} [HWMetRGWMetV], the IgG yield in experiment [5] was 91%; in experiment [6], 82%; in experiment [7] it was 91%; in experiment [4] it was 91%.

As for H[Trp(For)][Cit]G[Trp(For)]V (not fully specified (C-terminus)) [HWForCitGWForV], the IgG yield in experiment [5] amounted to 75%; in experiment [6] it was 69%; in experiment [7], 69%; in experiment [4] it was 75%.

As to HW[Cit]GWV-{Toyopearl AF‑Amino‑650M resin} [HWCitGWV], the IgG yield in experiment [5] came to 91%; in experiment [6], 71%; in experiment [7], 73%; in experiment [4] it was 91%.

The molecule H[Phe(4-CONH2)][Cit][Cit]HL [HFCarbCitCitHL] returned an IgG yield in experiment [4] of 53%.
